The values that follow come from paper PMC7144902, “Absence of MeCP2 binding to non-methylated GT-rich sequences in vivo”.

Substitutions are numbered along the chain they refer to.

What all share (details): protein: recombinant; tags: C-terminal His; label: 32P; blunt
The target in data set [1] is T1, MeCP2[1-205] (Homo sapiens, UniProt P51608 1-205). The experiment in a line: EMSA; comparable to mCAC, lower than mCG; EMSA: 10 mM Tris-HCl pH 7.5, 150 mM KCl (250 mM for MeCP2[1-486]), 0.1 mg/ml BSA, 5% glycerol, 0.1 mM EDTA, 1 ug poly(dA-dT), 1 ng probe, 20 ul, 30 min on ice.
In data set [2] the target is T1, MeCP2[1-205]. In words: EMSA; only marginal effect; EMSA: 10 mM Tris-HCl pH 7.5, 150 mM KCl (250 mM for MeCP2[1-486]), 0.1 mg/ml BSA, 5% glycerol, 0.1 mM EDTA, 1 ug poly(dA-dT), 1 ng probe, 20 ul, 30 min on ice.
In data set [3] the target is T1, MeCP2[1-205]. The experiment in a line: EMSA; similar to GGTGT and mCAC; EMSA: 10 mM Tris-HCl pH 7.5, 150 mM KCl (250 mM for MeCP2[1-486]), 0.1 mg/ml BSA, 5% glycerol, 0.1 mM EDTA, 1 ug poly(dA-dT), 1 ng probe, 20 ul, 30 min on ice.
Data set [4] deals with T1, MeCP2[1-205]. In words: EMSA; stronger than mCAC and GGTGT; EMSA: 10 mM Tris-HCl pH 7.5, 150 mM KCl (250 mM for MeCP2[1-486]), 0.1 mg/ml BSA, 5% glycerol, 0.1 mM EDTA, 1 ug poly(dA-dT), 1 ng probe, 20 ul, 30 min on ice.
Data set [5] concerns the target MeCP2[1-486] (Homo sapiens, UniProt P51608 1-486). The experiment in a line: EMSA; 250 mM KCl; preferred over CG; EMSA: 10 mM Tris-HCl pH 7.5, 150 mM KCl (250 mM for MeCP2[1-486]), 0.1 mg/ml BSA, 5% glycerol, 0.1 mM EDTA, 1 ug poly(dA-dT), 1 ng probe, 20 ul, 30 min on ice.
For data set [6], the target named is T1, MeCP2[1-205]. In words: EMSA; EMSA: 10 mM Tris-HCl pH 7.5, 150 mM KCl (250 mM for MeCP2[1-486]), 0.1 mg/ml BSA, 5% glycerol, 0.1 mM EDTA, 1 ug poly(dA-dT), 1 ng probe, 20 ul, 30 min on ice.
Data set [7] concerns the target MeCP2[77-167] (Homo sapiens, UniProt P51608 77-167). The data set is described as above.
The target in data set [8] is T1, MeCP2[1-205]. The experiment in a line: EMSA; background only; EMSA: 10 mM Tris-HCl pH 7.5, 150 mM KCl (250 mM for MeCP2[1-486]), 0.1 mg/ml BSA, 5% glycerol, 0.1 mM EDTA, 1 ug poly(dA-dT), 1 ng probe, 20 ul, 30 min on ice.
Data set [9] addresses T1, MeCP2[1-205]. The experiment in a line: EMSA; no significant binding; EMSA: 10 mM Tris-HCl pH 7.5, 150 mM KCl (250 mM for MeCP2[1-486]), 0.1 mg/ml BSA, 5% glycerol, 0.1 mM EDTA, 1 ug poly(dA-dT), 1 ng probe, 20 ul, 30 min on ice.

B1: GGTGT (dsDNA)
DNA 1: AAGCATGCAATGCCCTGGAAGGTGTAATTCTTCTAATAAAAGATGTATCATTTTAAATGC
DNA 2: GCATTTAAAATGATACATCTTTTATTAGAAGAATTACACCTTCCAGGGCATTGCATGCTT
As for B1, in data set [1], the binding result was “binds”.

B2: GGTGU (dsDNA)
DNA 1: B1 DNA 1 with T25U
DNA 2: B1 DNA 2
modifications: 3' motif T replaced by deoxyuridine
For B2, the binding result in data set [2] is “binds”.

B3: GT2 (dsDNA)
DNA 1: AAGCATGCAATGCCCTGGAAGTGTAATTCTTCTAATAAAAGATGTATCATTTTAAATGC
DNA 2: GCATTTAAAATGATACATCTTTTATTAGAAGAATTACACTTCCAGGGCATTGCATGCTT
As for B3, in data set [3], the binding result is reported as “binds”.

B4: GT5 (dsDNA)
DNA 1: AAGCATGCAATGCCCTGGAAGTGTGTGTGTAATTCTTCTAATAAAAGATGTATCATTTTAAATGC
DNA 2: GCATTTAAAATGATACATCTTTTATTAGAAGAATTACACACACACTTCCAGGGCATTGCATGCTT
With B4, in data set [3], the binding result is “binds”.

B5: mCG (dsDNA)
DNA 1: AAGCATGCAATGCCCTGGAACGGAATTCTTCTAATAAAAGATGTATCATTTTAAATGC
DNA 2: GCATTTAAAATGATACATCTTTTATTAGAAGAATTCCGTTCCAGGGCATTGCATGCTT
modifications: 5mC at strand 1 position 21; reverse strand the appropriate methylated oligo (position not given)
For the molecule B5, the binding result in data set [4] and in [5] was “binds” each time.

B6: mCAC (dsDNA)
DNA 1: B5 DNA 1 with G22A, G23C
DNA 2: B5 DNA 2 with C36G, C37T
modifications: 5mC at strand 1 position 21
As to B6, the binding result in data set [6] and in data set [7] was “binds” each time.

B7: CAC (dsDNA)
DNA 1: B5 DNA 1 with G22A, G23C
DNA 2: B5 DNA 2 with C36G, C37T
B7: the binding result in [8] is “no binding”.

B8: GT4 (dsDNA)
DNA 1: AAGCATGCAATGCCCTGGAAGTGTGTGTAATTCTTCTAATAAAAGATGTATCATTTTAAATGC
DNA 2: GCATTTAAAATGATACATCTTTTATTAGAAGAATTACACACACTTCCAGGGCATTGCATGCTT
B8: in [3], the binding result is on record as “binds”.

B9: GT3 (dsDNA)
DNA 1: AAGCATGCAATGCCCTGGAAGTGTGTAATTCTTCTAATAAAAGATGTATCATTTTAAATGC
DNA 2: GCATTTAAAATGATACATCTTTTATTAGAAGAATTACACACTTCCAGGGCATTGCATGCTT
In the case of B9, in data set [3], the binding result is “binds”.

B10: GT1 (dsDNA)
DNA 1: AAGCATGCAATGCCCTGGAAGTAATTCTTCTAATAAAAGATGTATCATTTTAAATGC
DNA 2: GCATTTAAAATGATACATCTTTTATTAGAAGAATTACTTCCAGGGCATTGCATGCTT
Consider B10, for which the binding result in [9] is recorded as “no binding”.
